The results in this text go back to patent publication US10370653B2, “Micro-screening apparatus, process, and products” (priority 2015, dated 2019).

Series [1] deals with CC1(C)C2=C(Cl)C(=O)C(Cl)=CC2=Nc2ccc(OP(=O)(O)O)cc21. Briefly: Michaelis-Menten kinetics of purified AP with DDAOP. The series is classed as biochemical, E. coli. The settings on record: other: substrate DDAOP, purified protein, pH 8.0. The source says:
(§1) Preparation of alkaline phosphatase protein constructs.
(§2) Analysis of alkaline phosphate activity.
(§3) Alkaline phosphatase was used as a model system.

Series [2] has the same test system. Briefly: Michaelis-Menten kinetics of yeast-displayed AP with DDAOP. The series is classed as biochemical, E. coli. The conditions noted are these: other: substrate DDAOP, yeast display, pH 8.0.
Text: as §1, §2
For kinetic measurements on the μSCALE platform, a series of images were acquired at set intervals with 600/60 nm excitation/655 nm long pass emission filters to generate single-cell reaction time courses for each cavity in the array. […] Error bars reflect the standard deviation across all cavities in each spot and were used to fit a calibration line using weighted least squares. In both cases, the linear regime of each kinetic time series was used to estimate reaction rates.
as §3

Series [3] has as its target fluorescently labeled phosphate-binding protein (PBP) from E. coli (Life Technologies, PV4406) (Escherichia coli, UniProt P0AG82, A222C). The conditions noted are these: inorganic phosphate ([Pi]); two-state binding isotherm; TrisHCl pH 7.6.
Protocol: Briefly, 100 μL of each sample was mixed with 100 μL of 1 μM PBP in Phosphate Sensor Detection Buffer (20 mM TrisHCl pH 7.6, 0.05% Triton X-100), and fluorescence of the mixture was immediately read out at an excitation/emission of 430/450 nm on a Biotek SYNERGY™ H4 plate reader spectrophotometer. When measuring phosphate content in the AP Reaction Buffer, the buffer was diluted 1:20 in water prior to incubation with the sensor in order to minimize interference from the concentrated MOPS and salt solutions on the PBP binding thermodynamics. PBP stocks were stored as 10 μM aliquots in Phosphate Sensor Storage Buffer (10 mM TrisHCl pH 7.6, 50 mM NaCl) at −80° C. and individually thawed prior to use. […] Error bars reflect the standard deviation over three measurements.

Chain of fluorescently labeled phosphate-binding protein (PBP) from E. coli (Life Technologies, PV4406) (P0AG82 26-346 A222C): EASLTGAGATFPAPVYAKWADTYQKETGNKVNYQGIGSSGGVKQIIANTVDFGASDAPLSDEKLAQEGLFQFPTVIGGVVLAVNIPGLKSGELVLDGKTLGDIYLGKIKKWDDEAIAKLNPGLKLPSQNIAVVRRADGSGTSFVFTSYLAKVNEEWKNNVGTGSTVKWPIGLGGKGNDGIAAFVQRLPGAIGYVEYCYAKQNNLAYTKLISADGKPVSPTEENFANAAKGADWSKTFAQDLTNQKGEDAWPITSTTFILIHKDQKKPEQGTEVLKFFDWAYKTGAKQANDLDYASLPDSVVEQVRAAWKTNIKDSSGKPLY

Usually Km stands for the substrate concentration at which the rate is half of its maximum. The kcat is the maximal rate divided by the concentration of active sites. For “E. coli alkaline phosphatase (AP), wild type (WT), GENBANK Accession Number M13345, purified protein (Escherichia coli K-12)”, in series [1] (50 pM), the Michaelis constant (Km) turned out to be 4.1 ± 0.1 µM, the kcat worked out at 15.7 ± 0.2 s⁻¹ and the kcat/Km result was “(3.8 +/− 0.1) × 10^6 M^-1 s^-1”.
As to “E. coli alkaline phosphatase (AP) variant R166S, yeast-displayed (Escherichia coli K-12; R188S)”, in series [2], the Km was found to be 55 ± 7 µM.
For the compound “E. coli alkaline phosphatase (AP) variant R166S, purified protein (Escherichia coli K-12; R188S)”, in series [1], the Km worked out at 51 ± 4 µM, the kcat is 0.7 ± 0.2 s⁻¹ and the kcat/Km result was “(1.4 +/− 0.4) × 10^4 M^-1 s^-1”.
The Kd is a measure of binding affinity in units of concentration. Read a low Kd as higher affinity. Take `O=P(O)(O)O` [inorganic phosphate]: in series [3], the Kd was 940 nM.
Turning to “E. coli alkaline phosphatase (AP), wild type (WT), GENBANK Accession Number M13345, yeast-displayed (Escherichia coli K-12)”, the Km in series [2] was 4.3 ± 0.4 µM.
